In publication PMC9979977:

Molecular target: Borna disease virus 1 (BoDV-1) phosphoprotein (Borna disease virus 1)
Assay: SEC-MALS; SEC-MALLS, Superdex 200 10/300, 20°C, 20 mM HEPES pH 7.5, 150 mM NaCl, 5%(v/v) glycerol; protein applied at 1-4 mg/ml; no concentration dependence of the oligomerization

Substance “Borna disease virus 1 (BoDV-1) phosphoprotein (natural protein)” has a stoichiometry N of 4.
